experiment: protease stability score; higher = more stable; yeast display proteolysis, trypsin and chymotrypsin;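 further: relative to predicted unfolded state with 0 unfolded-like and 1 meaning tenfold more protease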

Sequence | protease stability score
DEEEKWFRESEKLIEELIHTGNEEEFRKLADPNMRLDFNGVEVHGRHHFFREIRHTSEKFGVDKVEVRLKDFKVFNGVAHYHGEIIFNGRTIEHEIIAEKVNGRWRLQFLIFR | 1.61
DERSRNLEHYAKDLVEDWLTGDFRRYSKLADPNALTIFNGVELHGRELVIRMMNELRHRIDHLEIRIEDSHIQGNKVKIDSHRIMNVNGVEYRTKTEEWFDIVDGRVKSVEIRVH | 0.426
SKDDEIIHTLIRFIVHILQTGNEEESHRMADPNAKSNINGVEVHGREEFVDLWVEWMERLGHDRVHSRLRHVNIQGDKAIMHIELDVNGKEFNLIVFIRKVNGRWYLEEMTID | 2.11
DEDHEEVEKYLKLFMKISETGNEEDIKKMADPDTRVDIGDKRHHGMEEFLHFWSHWRIHSIDIKDIEVQGEKVIITGETDVTIDGRKLRMKIIIVALKVNGKWIHKSVKFE | 1.37
DDLEKVSHWFNRMWTEILKTGDEKLLKDLLDPHTKLIFENRHEHGREHMISFFKKLLDEMRVHDVKIRDIEVQGDKVISDTSLDLEINGRSFEVETRLLAVKVNGRWYVHEIELR | 2.36
DEEDHESHEMMRQHFEAFVTGDFESFTRYADPHVRLIVGDKHFHGRDLIVHVFLRLWHELGVKVSRIKEIHSVGDKMHLDGELHVGDKRFRLLVEARKFDGRWFNKRVELVIL | 1.48
SEEERDAHEAWRLILETNLTGDEDFSANLMDPDVRITINGRHLHGRELVLRFLNEWRIEFHRVEIKDYEVQGDYVIIIGHMDGILKVDGKEIRFTSDVSIISVKVNGRWLIREIHIK | 2.7
EETREASRIALEIFIRDLVTGNEDSLERLADPDTKFIINGRNYHGMEFLREEIRKWLERFKNIRVEVKVHHQRVFENHIEMDGRLDFNYDGQKEILEVRLFMVKFNGKWYIHSIEIR | 2.24
HEEEKHREDFVRTWLHNLITGNFEHHRHLADPRVRIRIIVDGREQRIHGREEMIRWFREWMELFPGYYRHIEHSDIIGEYVHIEGQLEVNGKRLDVHIHLEVINGKIKHLTIDSR | 1.09
SEEEEAKRDLDERWFRSIETGDFHTLEKLLDPHAKVRINGKDYHGREYLEWEIRDLGVKVMEQRVIIHREHRQGDKIHLQGEIIRILHVDGREEHHRFEVHYVMLKINGRWILHRMEFR | 0.883
DEDEHARKFVLDRLQHAWETGDEETMEKLMDPNAKLHVNGQDFHGRDTWHKLLHDELRDMGIKHFEFELKSFESQGNKLIIDGLEISEFNGREFRHRVTLIVDKFNGRWVVQSVEIR | 1.29
DEEQKEALHFLENLVRSWITGDEETLKRLFDPHYRVHAENRELHGWEDVIHTAVRESEEIRLHHVKIEHLEFVDGQIFIHLNFDIDINGRREHVHTHVILLKINGRWILTKIEFH | 1.38
SKEETWVKEAYELMTRTIRTGDERLMHELLDPHVRTVINGQESHGREVVLRFLEHIRYEEVTPTHIRIIGDWIDVDIRIHGHFDGRRYELRSTLFMRKVDGKWDLTEIRII | 0.709
TEHEEISHRLMELLKEALQTGDEEHIRDLADPHVRVIVNGKNIHGREEVHMWLLILNTKFKGLTLRVHHVDIQGEKIILDTRIHVNGRSTTSHVELYVVDGVLKRAHLHIE | 1.45
SEEDEFNREMRREIIEAWETGDFRIIEKLLDPNAKVVVGDYIDHGRHAIEVWLKRYDVRRRRDYKHVEVYDGVIRSDVRMDGEINGQRKITSVHIIFVIINGRIHQVEIHIH | 1.25
DEEEELAIEVVQRWVEDFLTGDFRSFRELADPNTKTRINGQEMHGRHVYVEWFVKWLKQIDHHDFKLHDVKVINGQVHTDGEMRLEVNGREHRSRVELILVIINGRLHMVELRIK | 2.13
DEDEENAKMFTELLWRVLLTGDEELFKEMADPHVRVIFDGREIHGRDDIAHWITEMRFEINILRINDVRLVGDYIKIDGTMERQGEINGKRIRSSHRIIIFVRKINGKWHLEQLHFS | 2.26
DEDHKHAERFVEEFITLILTGNEELLKRLADPNVKIDFDGVEIIGREILNSHTKKQINRIDHIRIHIRHIHVQGDKAIIDLEVRIIVDGKEDRNETHLFLTKVNGRWILTSWKVG | 1.6

Sequence | protease stability score
DEEEKLSQHMLKEWFEWTITGDEDTLAKMADPNVRVHIGDYHLHGRESMLKWLHDFIRDLGVERIDFHLRDRTVQGNKARLHVVENVNGKSTETEVIIDVIDGRMKLVEIRIR | 0.198
DDWEKLYEELTRLWLKLLITGDEEILIKLMDPHYRYHQGDKELHGRESYAEEVRREYEHARVKIHVERIHVFENHVEVNGELKIEINGRHYSIRTRIHLNIVNGKIKSIEIRTD | 1.39
DELTREMDRVHEELVRSLTTGDEDRLASMMDPNARLRIDGVNFIGRDKIREFWHQIDHSSMHLHHIHVYGDKIRLEGELILNFNGVEHNHETLMIIKKVDGKWVIESIHLK | 1.79
SEDNEIIHEMVQLFVDLFFTGDWEMLLSLFDPNVRMIVNGKTIHGRENIAHEVREFLERFKNVRFRDATIEHYSWQGDKLHAQIHIEGEINGRDRHSNVHIHITKIDGKWLITRIEVR | 2.39
DKLEKWAEHMVHLIFRAFETGDWRMLSKYFDPDTRHHVGNFHLVGMEDFIKLARELSERLGMEIDRVHVRHFDTQGDKLTVEIIVHSRVGDKEETRETIILVSKYNGRWHLSSIEIK | 1.39
DEYDHIAKLMVKLWLEWYLTGDEDYFNHYADPEVRSEVGDKRFHGRELFMRYIWEHHRERGVEIEIIVRRVEVQGEKAEVDGELIVRQGDKEHRLRVHIELKVVNGVLKKIRIEFR | 0.561
DESDTLAKEATREFEEFMRTGDEHSLLKLADPHVRLFWNGKQLVGREDYSKHIKFLLEHFGFDNIESRTEHIDWQGDKLRLHLRMHVNGKTITVEIHSEKINGRWMNREIHFT | 1.44
HDEEREVHEWIKLIEHHLRTGDEDAVRKLVDPTVRNDINGVDVVGRREDVERLHQADHIDIELKHVEIQGDKLHIDGVLILDFNGRHFYFRMKIIASKYNGVWKIKEKRVH | 0.999
EEEEWLVKIAIRILIETFRTGDFHLWEELADPNTRLRIGNFEFHGREEVLHSLIEMRIHSVHIEDHKVIDGRLHVDSRLLGTFNGQHINRETRLISLKINGVWFIKSFEFV | 0.648
DEEEELWKELSKLIIHEWRTGDEEIFARLFDPNAKMRHLVDGRDDQHVGREKTVHVLLKVLEDLGIKHIKHEHITIQGDWVHMHTTLNVDGREIKVEMHFVVINGKYKSVEERTK | 0.966
DEKTEQSREIIELLLKALQTGDEDTLTELLDPHVKIHIGDKDYHGREEVSRLLQEFWDRFKNARIEIHDYRDINGRVHVDLRHVVGDKTYTSKWNILKVNGRWYIEQIHVH | 2.07
DEKEKEFKEVWKRILEILLTGDEEELTRMADPHARLDVNGVERHGREEMSKYIRHWHEKVKNARFWIHSIHVVGEKVVIDTEIQIGDKRIRYIVHFIVVDGRIKEIHVHEEII | 2.12
HELLKLVEEMARITVKLFMTGDWKTFKHLADPHVREIINGRTVHGMEKVVEHRKEFKEELWIESITIHDVEVQGEKAHLNTKLIGHVNGREVEVEIYVNIEIINGRWNLVEIDIR | 1.76
SEKHEEVKRALELEVQLLRTGDEDIYANLADPNTRLLFDGVDIIGMEKVMEWLRFIHEHIRIRDLKIRRVRLIDGQVDVDSQIEGHVGDKHINIKHEIVVEKINGRWYIRSRHWH | 1.52
SEEKRIDQHFTEQLDRLIETGDEEQLNKLADPHARLIFNGRTEHGREESHKLRHELLERWGHDRVHVELKDMEVQGDKLIVHTVIQINGVKFHVEIIVRKINGRWKMTEVRII | 0.314
DEDTRDVDRFLKRLEETLLTGDWNSIRELFDPNVKVIFNGRHRHGWQNMVDILREIRVTDVRMELDDVEQYGDKITIRGRLRFKGEINGKEQDTSLTIEIILIKVNGKWSVNSIEFR | 2.46
DEWTHVLHEMLKLLLDAWDTGDEKVLHRMMDPNAKSEINGREFVGMHHISTWLKRERDRLGVEIHIHVRRINFQGDKLEVDSHFNVIIGDKEFHRSTRIELIIVNGRVHSLHIKID | 0.212
SEEEEKLKKILELLRHRILTGDEEFYSRLIDPNARVNIDGKTTHGREEMEHILRELNEDYGVKHHTVRSTEIFDGVNWIRGEFRVNGRSRTVEIIIWVYNGRLKSSEFRFD | 1.39
